From publication doi:10.1101/2020.03.02.972562 come the findings set out here.

For this assay, the target named is RSC complex (budding yeast (S. cerevisiae) (endogenous in BJ3505)) (UniProt P32597). Description: BLI. Background: Biolayer interferometry detects binding as a change in optical thickness at a sensor tip.
Sequence of UniProt P32597 (P32597 whole entry, looked up, one chain of several): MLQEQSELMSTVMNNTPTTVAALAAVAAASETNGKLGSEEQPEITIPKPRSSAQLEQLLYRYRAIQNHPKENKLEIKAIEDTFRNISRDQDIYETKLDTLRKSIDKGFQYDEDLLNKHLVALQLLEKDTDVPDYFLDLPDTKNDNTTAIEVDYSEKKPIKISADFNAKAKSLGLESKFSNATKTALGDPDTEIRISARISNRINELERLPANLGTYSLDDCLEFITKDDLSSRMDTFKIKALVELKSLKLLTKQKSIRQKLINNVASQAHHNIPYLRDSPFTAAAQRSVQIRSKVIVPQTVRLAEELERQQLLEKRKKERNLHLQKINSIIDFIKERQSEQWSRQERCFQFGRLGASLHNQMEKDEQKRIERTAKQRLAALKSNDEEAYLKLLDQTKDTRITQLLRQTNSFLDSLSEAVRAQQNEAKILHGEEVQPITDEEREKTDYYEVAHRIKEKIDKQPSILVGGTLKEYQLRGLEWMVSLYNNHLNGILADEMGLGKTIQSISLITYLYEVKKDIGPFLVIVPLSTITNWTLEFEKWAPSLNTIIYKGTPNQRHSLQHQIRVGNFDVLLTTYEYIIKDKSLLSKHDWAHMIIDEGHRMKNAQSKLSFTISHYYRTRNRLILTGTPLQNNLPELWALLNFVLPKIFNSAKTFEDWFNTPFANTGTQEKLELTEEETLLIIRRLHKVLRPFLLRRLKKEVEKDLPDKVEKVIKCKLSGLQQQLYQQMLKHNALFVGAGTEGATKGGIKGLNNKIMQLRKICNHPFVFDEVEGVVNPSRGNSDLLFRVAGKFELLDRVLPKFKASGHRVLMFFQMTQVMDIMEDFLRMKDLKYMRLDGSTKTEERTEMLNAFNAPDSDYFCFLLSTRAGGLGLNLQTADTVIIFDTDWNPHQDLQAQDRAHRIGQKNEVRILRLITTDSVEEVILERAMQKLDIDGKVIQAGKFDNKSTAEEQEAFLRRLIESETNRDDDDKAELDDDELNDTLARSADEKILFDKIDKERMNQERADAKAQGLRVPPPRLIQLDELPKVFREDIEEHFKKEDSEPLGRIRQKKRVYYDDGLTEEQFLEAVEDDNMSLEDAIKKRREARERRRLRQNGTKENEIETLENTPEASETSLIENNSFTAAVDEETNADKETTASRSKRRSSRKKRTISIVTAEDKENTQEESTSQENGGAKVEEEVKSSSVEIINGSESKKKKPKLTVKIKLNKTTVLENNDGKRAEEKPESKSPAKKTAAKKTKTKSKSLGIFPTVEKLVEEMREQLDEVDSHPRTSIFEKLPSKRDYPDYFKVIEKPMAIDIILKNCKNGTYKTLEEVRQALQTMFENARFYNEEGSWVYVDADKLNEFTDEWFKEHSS

For “SUMOylated nucleosome core particles (from UniProt P68431 1-136; P62805 1-103; P04908 1-130; P02281 6-126) (complex)”, the fold affinity against unmodified NCPs is 2 fold.
